In article PMC2995296:

Key:
[1] = biological target: 5-FAM-labeled phospho-T427 peptide of the Rad9 SCD (S. cerevisiae); test: fluorescence polarisation
[2] = biological target: GST-BRCT (Rad9 tandem BRCT domain fused to GST), wild type (S. cerevisiae); test: pull-down

GST-BRCT (Rad9 tandem BRCT domain fused to GST), wild type (domain or fragment)
Kd [1]: 78 µM

PIKK-phosphorylated N-SCD (N-terminal fragment of Rad9-TEV-HA from MMS-treated cells) (from UniProt P14737 1-990) (domain or fragment)
yield of N-SCD in the pull-down (percent of the starting material) [2]: > 10%
